Experimental findings from patent US20250250593A1, “METHOD FOR PREPARING ALPHA-BRANCHED BETA'-HYDROXY CARBONYL COMPOUNDS BY ENZYMATIC-CATALYZED REDUCTIVE ALDOL REACTION” (Max-Planck-Gesellschaft zur Förderung der Wissenschaften …, priority 2022, published 2025) are described below.

Experiment [1] has as its system KsCcr. Kind of experiment: HPLC analysis of reaction products: 2-HMB-CoA formed over total products from crotonyl-CoA and formaldehyde. Conditions: for Ratio of 2-HMB-CoA formed over total products: triplicates, mean ± standard deviation, values given as %. In kind it is biochemical, Kitasatospora setae. The source says:
KsCcr wild-type (WT) natively promotes the NADPH-dependent reductive carboxylation of crotonyl-CoA into ethylmalonyl-CoA. […] Under these conditions, neither ethylmalonyl-CoA (carboxylation product) nor butyryl-CoA (reduction side product) were detected with LC-MS (see Table 2 further below). […] The compound was isolated and its structure was further verified using 2-dimensional NMR and high-resolution MS experiments. […] The newly introduced carbon was also observed in the ^13C-NMR experiment, confirming formation of aldol product 2-HMB-CoA by KsCcr.
The reaction was diluted 10 times into 5% methanol/Buffer 8.1 and analyzed by HPLC over an Agilent Eclipse Plus C18, 3.5 μm 100 Å, 100×2.1 mm, […] column using 5% to 30% acetonitrile gradient over 7.5 min with 25 mM ammonium formate pH=8.1 as the aqueous phase.

For experiment [2], the system named is KsCcr. Kind of experiment: Native reductive carboxylation of crotonyl-CoA with CO2. Conditions: CO2 as electrophile. In kind it is biochemical, Kitasatospora setae.

Numbering of substitutions follows the chain as printed.

B1: KsCcr variant Asn81Leu: KsCcr active site variant Asn81Leu, SEQ ID NO: 20 (protein)
chain: MQEILDAILSGDAASADYAALALPESYRAVTLHKGEERMFDGLASRDKDPRKSLHLDDVPLPELGPGEALVAVMASSVNYLTVWSSIFEPVSTFGFLERYGRLSPLTARHDLPYHVLGSDLAGVVLRTGAGVNAWKPGDEVVAHCLSVELESPDGHNDTMMDPEQRIWGFETNFGGLAQLALVKTNQLLPKPKHLTWEEAASPGLVNSTAYRQLVSRNGAGLKQGDNVLIWGASGGLGSYATQYALAGGATPICVVSSPRKADICRAMGAEAIIDRSAEGYRFWKDEHHQDPREWKRLGGKIREFTGGEDVDIVFEHPGRETFGASVYVTRKGGTIVTCASTSGYMHQYDNRYLWMSLKRIVGSHFANYREAFEANRLVAKGKIHPTLSKVYALEETGQAALDVHHNKHQGKVGVLCLAPREGLGVTDPELRSKHLTKINAFRNV
modifications: KsCcr variant Asn81Leu
With B1, the “Ratio of 2-HMB-CoA formed over total products” value (shortened to “Ratio of 2-HMB-CoA formed”) in experiment [1] (5 mM formaldehyde) was 35 ± 0. For the same molecule, in experiment [1] (75 mM formaldehyde), the “2-HMB-CoA produced (reductive aldol product)” value is on record as “up to 64%” and the “Ratio of 2-HMB-CoA formed” value was found to be 64 ± 2. In addition, in experiment [2] (C2-ene adduct accumulates), the “carboxylation of crotonyl-CoA” value is listed as “completely impaired”.

B2: KsCcr variant Phe170Ala: KsCcr variant Phe170Ala, SEQ ID NO: 23 (protein)
chain: B1 chain with L81N, F170A
modifications: KsCcr variant Phe170Ala
In the case of B2, the “Ratio of 2-HMB-CoA formed” value in experiment [1] (5 mM formaldehyde) was 17 ± 0. Also, in experiment [1] (75 mM formaldehyde), the “2-HMB-CoA produced (reductive aldol product)” value is listed as “up to 64%” and the “Ratio of 2-HMB-CoA formed” value came to 64 ± 0. Moreover, in experiment [2], the reductive carboxylation came to 17%.
